Test results reported in the supplement of paper PMC9112550, “Optimization of the antimicrobial peptide Bac7 by deep mutational scanning” (BMC Biology, 2022).

Test system: Escherichia coli TOP10
Experiment: shrunken log2 fold change of peptide-encoding DNA abundance (4.5 h post-induction vs induction); higher = less antimicrobial activity (less host growth inhibition)
Conditions: time post-induction: 4.5 h; library: site-saturation at positions 5, 18, 19, 20
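Further: peptides expressed intracellularly from a pBAD plasmid library in pooled LB shake-flask culture, induced with 0.3% L-arabinose, DNA abundance read by NGS, three biological replicates, DESeq2 with apeglm shrinkage.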

Sequence	shrunken log2 fold change
RRIRFRPPRLPRPRPRPHWGPRP	-0.0695
RRIRSRPPRLPRPRPRPTVAPRP	0.243
RRIRWRPPRLPRPRPRPQKKPRP	0.0854
RRIRQRPPRLPRPRPRPFRPPRP	-0.303
RRIRLRPPRLPRPRPRPQDPPRP	-0.101
RRIRARPPRLPRPRPRPTHIPRP	0.36
RRIRPRPPRLPRPRPRPSEVPRP	-0.079
RRIRGRPPRLPRPRPRPYRPPRP	-0.186
RRIRQRPPRLPRPRPRPPSDPRP	1.18
RRIRMRPPRLPRPRPRPITIPRP	-0.315
RRIRVRPPRLPRPRPRPQCGPRP	-0.0769
RRIRSRPPRLPRPRPRPYHPPRP	-0.00174
RRIRSRPPRLPRPRPRPCVFPRP	-0.112
RRIRTRPPRLPRPRPRPDGVPRP	-0.0136
RRIRMRPPRLPRPRPRPGFYPRP	0.0157
RRIRARPPRLPRPRPRPVVLPRP	0.463
RRIRPRPPRLPRPRPRPQYVPRP	-0.184
RRIRQRPPRLPRPRPRPMNNPRP	-0.2
RRIRDRPPRLPRPRPRPGIVPRP	0.0969
RRIRVRPPRLPRPRPRPARCPRP	0.205
RRIRERPPRLPRPRPRPWIGPRP	0.155
RRIRGRPPRLPRPRPRPFDKPRP	-0.663
RRIRERPPRLPRPRPRPEYAPRP	-0.143
RRIRDRPPRLPRPRPRPMLMPRP	0.348
RRIRMRPPRLPRPRPRPQETPRP	-0.00161

Sequence	shrunken log2 fold change
RRIRRRPPRLPRPRPRPFGRPRP	0.114
RRIRLRPPRLPRPRPRPDDIPRP	-0.0521
RRIRWRPPRLPRPRPRPCVGPRP	0.352
RRIRWRPPRLPRPRPRPIVEPRP	0.127
RRIRGRPPRLPRPRPRPVGYPRP	0.295
RRIRMRPPRLPRPRPRPAERPRP	0.385
RRIRHRPPRLPRPRPRPCHYPRP	-0.4
RRIRNRPPRLPRPRPRPHQIPRP	-0.247
RRIRKRPPRLPRPRPRPGGHPRP	0.0505
RRIRYRPPRLPRPRPRPVNRPRP	-0.655
RRIRDRPPRLPRPRPRPPFWPRP	0.185
RRIRPRPPRLPRPRPRPDYMPRP	-0.334
RRIRHRPPRLPRPRPRPQEFPRP	-0.00101
RRIRWRPPRLPRPRPRPFCDPRP	0.189
RRIRGRPPRLPRPRPRPYMFPRP	0.221
RRIRKRPPRLPRPRPRPYRWPRP	-0.164
RRIRRRPPRLPRPRPRPNLGPRP	0.00298
RRIRARPPRLPRPRPRPMRPPRP	0.342
RRIRPRPPRLPRPRPRPHQDPRP	-0.362
RRIRKRPPRLPRPRPRPIANPRP	0.339
RRIRTRPPRLPRPRPRPGNIPRP	-0.0496
RRIRNRPPRLPRPRPRPNSMPRP	-0.815
RRIRLRPPRLPRPRPRPFHDPRP	-0.713
RRIRFRPPRLPRPRPRPIYGPRP	-0.289
RRIRTRPPRLPRPRPRPGVIPRP	0.0978

Sequence	shrunken log2 fold change
RRIRVRPPRLPRPRPRPAKRPRP	0.615
RRIRRRPPRLPRPRPRPFLGPRP	0.187
RRIRDRPPRLPRPRPRPAVNPRP	0.092
RRIRQRPPRLPRPRPRPMRQPRP	-0.0137
RRIRDRPPRLPRPRPRPMTIPRP	0.0371
RRIRMRPPRLPRPRPRPLHEPRP	0.545
RRIRQRPPRLPRPRPRPMIFPRP	-0.0627
RRIRTRPPRLPRPRPRPDSIPRP	-0.0295
RRIRYRPPRLPRPRPRPFGSPRP	-0.0685
RRIRFRPPRLPRPRPRPWIVPRP	-0.242
RRIRARPPRLPRPRPRPEGRPRP	2.11
RRIRQRPPRLPRPRPRPHEHPRP	0.0439
RRIRRRPPRLPRPRPRPPEVPRP	0.821
RRIRKRPPRLPRPRPRPKFCPRP	0.0649
RRIRVRPPRLPRPRPRPGWCPRP	0.146
RRIRHRPPRLPRPRPRPEASPRP	0.0128
RRIRYRPPRLPRPRPRPGADPRP	-0.177
RRIRYRPPRLPRPRPRPGQRPRP	0.212
RRIRCRPPRLPRPRPRPWMFPRP	-0.453
RRIRPRPPRLPRPRPRPIENPRP	-0.414
RRIRDRPPRLPRPRPRPSDWPRP	0.137
RRIRNRPPRLPRPRPRPPSGPRP	-0.0646
RRIRVRPPRLPRPRPRPFHIPRP	-0.527
RRIRRRPPRLPRPRPRPQYYPRP	-0.968
RRIRHRPPRLPRPRPRPRKTPRP	0.00946

Sequence	shrunken log2 fold change
RRIRGRPPRLPRPRPRPYKRPRP	-0.217
RRIRPRPPRLPRPRPRPVSRPRP	0.0925
RRIRERPPRLPRPRPRPYWPPRP	-0.249
RRIRARPPRLPRPRPRPKSWPRP	0.89
RRIRDRPPRLPRPRPRPGSDPRP	0.461
RRIRYRPPRLPRPRPRPVWAPRP	0.205
RRIRFRPPRLPRPRPRPHPKPRP	0.827
RRIRARPPRLPRPRPRPIDYPRP	-0.228
RRIRGRPPRLPRPRPRPKVEPRP	0.615
RRIRYRPPRLPRPRPRPNGQPRP	-0.0885
RRIRQRPPRLPRPRPRPFEYPRP	-0.0368
RRIRIRPPRLPRPRPRPVTFPRP	-0.00574
RRIRPRPPRLPRPRPRPWAMPRP	-0.223
RRIRIRPPRLPRPRPRPDLKPRP	-0.194
RRIRLRPPRLPRPRPRPYFMPRP	-0.855
RRIRNRPPRLPRPRPRPALMPRP	0.15
RRIRRRPPRLPRPRPRPDIAPRP	-0.0619
RRIRPRPPRLPRPRPRPPNVPRP	-0.0451
RRIRNRPPRLPRPRPRPFPLPRP	-0.0286
RRIRCRPPRLPRPRPRPQYSPRP	-0.273
RRIRARPPRLPRPRPRPRLVPRP	0.512
RRIRARPPRLPRPRPRPVICPRP	0.408
RRIRWRPPRLPRPRPRPQIFPRP	-0.053
RRIRIRPPRLPRPRPRPRGNPRP	-0.0419
RRIRCRPPRLPRPRPRPYRTPRP	-0.132

Sequence	shrunken log2 fold change
RRIRYRPPRLPRPRPRPFEDPRP	-0.057
RRIRLRPPRLPRPRPRPIHTPRP	-0.133
RRIRQRPPRLPRPRPRPRHHPRP	0.0815
RRIRRRPPRLPRPRPRPSKKPRP	0.144
RRIRSRPPRLPRPRPRPFVGPRP	-0.222
RRIRKRPPRLPRPRPRPQAGPRP	-0.00963
RRIRRRPPRLPRPRPRPEIEPRP	0.216
RRIRPRPPRLPRPRPRPRWTPRP	0.399
RRIRERPPRLPRPRPRPYNNPRP	-0.822
RRIRYRPPRLPRPRPRPFNNPRP	2.81
RRIRLRPPRLPRPRPRPSLNPRP	-0.625
RRIRERPPRLPRPRPRPAKFPRP	0.112
RRIRWRPPRLPRPRPRPRYQPRP	-0.188
RRIRKRPPRLPRPRPRPTKNPRP	0.392
RRIRQRPPRLPRPRPRPVYHPRP	-0.83
RRIRERPPRLPRPRPRPHDGPRP	-0.532
RRIRFRPPRLPRPRPRPTIQPRP	-0.266
RRIRLRPPRLPRPRPRPYSDPRP	-0.0348
RRIRERPPRLPRPRPRPHHSPRP	-0.603
RRIRNRPPRLPRPRPRPNAMPRP	0.0458
RRIRPRPPRLPRPRPRPSVIPRP	-0.00563
RRIRHRPPRLPRPRPRPWSMPRP	-0.293
RRIRPRPPRLPRPRPRPPLYPRP	0.217
RRIRIRPPRLPRPRPRPKVIPRP	0.0457
RRIRGRPPRLPRPRPRPMWCPRP	0.667
